Test results published in patent publication US20140193400A1 (ESBATECH AN ALCON BIOMEDICAL RESEARCH UNIT, published 2014).

Target: T1, recombinant human TNFalpha (human, UniProt P01375 77-233)
T1 construct: Used at 1000 pg/ml (L929 assay) or 10 pg/ml (Kym-1 assay); also called hTNF; TNFα
Assay: secretion ELISA on TNFα, bacterial culture supernatant not normalised for single-chain antibody content

T1 sequence (P01375 77-233 limits assumed): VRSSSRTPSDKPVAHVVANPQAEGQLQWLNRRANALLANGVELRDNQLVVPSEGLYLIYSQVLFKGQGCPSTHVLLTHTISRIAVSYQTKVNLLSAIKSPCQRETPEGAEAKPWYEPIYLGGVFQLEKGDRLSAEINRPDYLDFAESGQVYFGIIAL

B1: 34min (scFv)
scFv (VL-linker-VH): EIVMTQSPSTLSASVGDRVIITCQSSQSVYGNIWMAWYQQKPGKAPKLLIYQASKLASGVPSRFSGSGSGAEFTLTISSLQPDDFATYYCQGNFNTGDRYAFGQGTKLTVLGGGGGSGGGGSGGGGSGGGGSEVQLVESGGGLVQPGGSLRLSCAASGFTISRSYWICWVRQAPGKGLEWVSCIYGDNDITPLYANWAKGRFTISRDNSKNTLYLQMNSLRAEDTAVYYCAKLGYADYAYDLWGQGTLVTVSS
notes: also called EP34min; EP34_min
B1: binds.
